Tests used:
Experiment in all cases: SPR
MEDI4212 aFuc (human) = molecular target: MEDI4212 aFuc (human)
[1] = molecular target: MEDI4212 3M (S239D/A330L/I332E) (human)
[2] = molecular target: MEDI4212 2M2 (S239D/I332E) (human)
[3] = molecular target: MEDI4212 wild-type (WT) monoclonal antibody (human)

Row | Kd (MEDI4212 aFuc (human)) [nM] | Kd [1] [nM] | Kd [2] [nM] | Kd [3] [nM] | Substance
1 | 389 | 36 | 67 | 4960 | Flag-tagged hFcγRIIIa (158F) (from UniProt P08637 17-254) (receptor)
2 | 50 | 7 | 7 | 502 | Flag-tagged hFcγRIIIa (158V) (receptor)

From publication PMC4856805
